Biological target: unmodified, wild-type (WT) human FcRn (neonatal Fc receptor) (human) (UniProt P55899)
Assay: FcRn affinity chromatography with pH monitor

| Substance | FcRn dissociation pH (mean) |
| --- | --- |
| adalimumab (antibody) | 7.39 pH |
| briakinumab (antibody) | 7.81 pH |
| cetuximab (antibody) | 7.25 pH |
| margetuximab (antibody) | 7.34 pH |

Next, values leading:

| FcRn dissociation pH (mean) | Substance |
| --- | --- |
| 7.22 pH | NIST mAb (reference material RM8671) (antibody) |
| 7.12 pH | cusatuzumab (antibody) |
| 7.28 pH | durvalumab (antibody) |
| 7.43 pH | rituximab (antibody) |

From article PMC10443974
